In patent US20220185894A1 (F STAR THERAPEUTICS, published 2022):
Substitutions are numbered along the chain they refer to. Several values for one entry are separate records, joined by “and”; a condition that tells them apart may be missing. Identical values can stand only once.

T1: recombinant Fc-tagged human LAG-3 (R&D Systems, 2319-L3-050) (human, UniProt P18627 23-450)
T1 construct: Bought protein; also called LAG-3 Fc; human LAG-3-Fc; not shown: Fc tag of the bought fusion protein
T1 sequence: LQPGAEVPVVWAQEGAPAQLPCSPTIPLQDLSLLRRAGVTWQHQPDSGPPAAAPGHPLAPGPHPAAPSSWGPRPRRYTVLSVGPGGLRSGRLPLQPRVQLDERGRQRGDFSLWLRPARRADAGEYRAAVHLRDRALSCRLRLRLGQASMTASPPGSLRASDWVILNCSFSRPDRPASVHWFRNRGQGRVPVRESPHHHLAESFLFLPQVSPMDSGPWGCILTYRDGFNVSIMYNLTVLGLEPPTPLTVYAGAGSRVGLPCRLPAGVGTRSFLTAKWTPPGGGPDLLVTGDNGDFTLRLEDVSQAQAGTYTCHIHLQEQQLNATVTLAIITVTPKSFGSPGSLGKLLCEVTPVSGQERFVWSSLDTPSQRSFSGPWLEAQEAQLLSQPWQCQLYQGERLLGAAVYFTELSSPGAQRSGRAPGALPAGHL

B1: anti-human LAG-3/PD-L1 mAb2 FS18-7-32/84G09 with LALA mutation (bispecific antibody, human IgG1, kappa, L234A L235A)
heavy: EVQLVESGGGLVQPGRSLRLSCAASGFTFDDYAMHWVRQTPGKGLEWVSGISWKSNIIGYADSVKGRFTISRDNAKNSLYLQMNSLRAEDTALYYCARDITGSGSYGWFDPWGQGTLVTVSSASTKGPSVFPLAPSSKSTSGGTAALGCLVKDYFPEPVTVSWNSGALTSGVHTFPAVLQSSGLYSLSSVVTVPSSSLGTQTYICNVNHKPSNTKVDKKVEPKSCDKTHTCPPCPAPEAAGGPSVFLFPPKPKDTLMISRTPEVTCVVVDVSHEDPEVKFNWYVDGVEVHNAKTKPREEQYNSTYRVVSVLTVLHQDWLNGKEYKCKVSNKALPAPIEKTISKAKGQPREPQVYTLPPSWDEPWGEDVSLTCLVKGFYPSEIAVEWESNGQPENNYKTTPPVLDSDGSFFLYSKLTVPYDRWVWPDEFSCSVMHEALHNHYTQKSLSLSPG
light: DIQMTQSPSSLSASVGDRVTITCRASQSISSYLNWYQQKPGKAPKPLIYVASSLQSGVPSSFSGSGSGTDFTLTISSLQPEDFATYYCQQSYSNPITFGQGTRLEIKRTVAAPSVFIFPPSDEQLKSGTASVVCLLNNFYPREAKVQWKVDNALQSGNSQESVTEQDSKDSTYSLSSTLTLSKADYEKHKVYACEVTHQGLSSPVTKSFNRGEC
notes: also called FS18-7-32/84G09LALA; F518-7-32/84G09LALA
B2: anti-human LAG-3/PD-L1 mAb2 FS18-7-65/84G09 with LALA mutation (bispecific antibody, human IgG1, kappa, L234A L235A)
heavy: B1 heavy with E381D, Q391Y, P392A, N394Y
light: B1 light
notes: also called FS18-7-65/84G09 LALA; F518-7-65/84G09LALA
B3: anti-human LAG-3/PD-L1 mAb2 FS18-7-33/84G09 with LALA mutation (bispecific antibody, human IgG1, kappa, L234A L235A)
heavy: B1 heavy with E381D, N394D
light: B1 light
notes: also called FS18-7-33/84G09LALA; F518-7-33/84G09LALA
B4: anti-human PD-L1 mAb 84G09 (without LALA mutation) (antibody, human IgG1, kappa)
heavy: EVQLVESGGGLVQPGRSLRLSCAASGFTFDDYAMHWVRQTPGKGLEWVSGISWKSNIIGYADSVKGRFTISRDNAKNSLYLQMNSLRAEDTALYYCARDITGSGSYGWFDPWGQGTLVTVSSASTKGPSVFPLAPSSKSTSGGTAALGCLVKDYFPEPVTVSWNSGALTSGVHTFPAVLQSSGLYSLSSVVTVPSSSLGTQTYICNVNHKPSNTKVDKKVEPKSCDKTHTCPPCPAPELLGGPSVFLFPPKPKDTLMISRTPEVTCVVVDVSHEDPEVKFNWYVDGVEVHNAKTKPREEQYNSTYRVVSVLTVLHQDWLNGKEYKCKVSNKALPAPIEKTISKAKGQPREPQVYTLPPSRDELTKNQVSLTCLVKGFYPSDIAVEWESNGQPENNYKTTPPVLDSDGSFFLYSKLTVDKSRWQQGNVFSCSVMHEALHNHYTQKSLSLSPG
light: B1 light
notes: Human IgG1; also called 84G09 (parental); parental anti-PD-L1 mAb
B5: anti-human LAG-3/PD-L1 mAb2 FS18-7-36/84G09 with LALA mutation (bispecific antibody, human IgG1, kappa, L234A L235A)
heavy: B1 heavy with E381D, F409Y
light: B1 light
notes: also called FS18-7-36/84G09LALA
B6: anti-human LAG-3/PD-L1 mAb2 FS18-7-58/84G09 with LALA mutation (bispecific antibody, human IgG1, kappa, L234A L235A)
heavy: B1 heavy with E381D, Q391Y, N394I, N395E, Y396F
light: B1 light
notes: also called F518-7-58/84G09LALA
B7: anti-human LAG-3/PD-L1 mAb2 FS18-7-88/84G09 with LALA mutation (bispecific antibody, human IgG1, kappa, L234A L235A)
heavy: B1 heavy with E381D, Q391V, N394L, Y396V
light: B1 light
B8: anti-human LAG-3/PD-L1 mAb2 FS18-7-95/84G09 with LALA mutation (bispecific antibody, human IgG1, kappa, L234A L235A)
heavy: B1 heavy with E381D, Q391Y, P392Q, N394D
light: B1 light

The binders below were run against T2, cynomolgus PD-L1 expressed on cells (cynomolgus monkey, UniProt Q9NZQ7 19-290 (human entry)) (assay: flow cytometry on HEK cells expressing cynomolgus PD-L1).
T2 construct: also called cPD-L1; cyno PD-L1
T2 sequence (Q9NZQ7 other isoform, or with tags, fused parts or gaps limits assumed): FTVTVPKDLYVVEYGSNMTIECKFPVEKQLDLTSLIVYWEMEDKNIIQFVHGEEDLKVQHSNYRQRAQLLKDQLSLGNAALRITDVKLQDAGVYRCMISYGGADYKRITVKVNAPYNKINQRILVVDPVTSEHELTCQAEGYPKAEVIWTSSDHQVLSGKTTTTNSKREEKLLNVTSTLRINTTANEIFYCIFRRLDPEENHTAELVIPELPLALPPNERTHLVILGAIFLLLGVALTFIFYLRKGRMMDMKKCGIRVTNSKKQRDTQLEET
Protocol: (§1) HEK cells expressing human or cynomolgus PD-L1 grown in DMEM (Life Technologies, 61965-026) containing 10% FBS (Life Technologies, 10270-1-6), 100 μg/ml Hygromycin B (Melford Laboratories Ltd, Z2475), 15 μg/ml Blasticidin (Melford Laboratories Ltd, B1105) and 1 μg/ml Doxycyclin (Sigma, D9891) were detached from tissue culture flasks using cell dissociation buffer (Life Technologies, 13151-014) and seeded in V-bottom 96-well plates (Costar, 3897) at 2×10⁵ cells/well. The plates were centrifuged at 1500 rpm for 3 min at 4° C. to pellet the cells. A dilution series of the mAb² (or control mAb) was incubated with the cells in a 100 μl volume for 1 h at 4° C. The plates were washed and secondary antibody (Anti-human Fc-488, Jackson ImmunoResearch, 109-546-098) was diluted 1:1000 in PBS and 100 μl was added to the cells for 30 min at 4° C. (plates were kept in the dark). The plates were washed then cells were resuspended in 100 μl PBS containing 1 μg/ml DAPI (Biotium, 40043). The plates were read using Canto II flow cytometer (BD Bioscience). Dead cells were excluded and the fluorescence in the FITC channel (488 nm/530/30) was measured. The data was fit using log (agonist) vs response in GraphPad Prism Software. The plates were read on a BD FACSCanto II cytometer (BD Biosciences) and the data analysed using FlowJo.

| EC50 | Binder |
| --- | --- |
| 1.98 nM | B1 |
| 1.84 nM | B2 |
| 1.9 nM and 1.73 nM | B3 |
| 1.64 nM and 1.96 nM | B4 |
| 2 nM | B5 |
| 1.86 nM and 2.03 nM | B6 |
| 1.81 nM | B7 |

Each binder was assayed against T3, human PD-L1 expressed on cells (human, UniProt Q9NZQ7 19-290) (assay: flow cytometry on HEK cells expressing human PD-L1).
T3 construct: also called hPD-L1; human PD-L1 HEK
T3 sequence (Q9NZQ7 19-290 limits assumed): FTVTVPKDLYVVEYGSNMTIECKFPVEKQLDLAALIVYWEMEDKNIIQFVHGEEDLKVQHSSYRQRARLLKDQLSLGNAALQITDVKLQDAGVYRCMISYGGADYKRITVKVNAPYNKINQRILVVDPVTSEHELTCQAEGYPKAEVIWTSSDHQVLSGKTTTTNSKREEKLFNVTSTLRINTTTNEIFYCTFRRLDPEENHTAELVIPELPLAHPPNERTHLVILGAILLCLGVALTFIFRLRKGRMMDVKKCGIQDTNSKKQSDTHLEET
Protocol: as §1

| EC50 | Binder |
| --- | --- |
| 3.82 nM | B1 |
| 4 nM | B2 |
| 3.45 nM and 3.23 nM | B3 |
| 3.11 nM and 3.05 nM | B4 |
| 3.91 nM | B5 |
| 3.77 nM and 3.91 nM | B6 |
| 3.49 nM | B7 |

These binders were tested against T4, human PD-L1 Fc (R&D Systems, 156-B7) (human, UniProt Q9NZQ7 19-239) (assay: SPR, BIAcore T200; mAb2 captured on Protein L, PD-L1 Fc injected).
T4 construct: Bought protein; not shown: Fc tag of the bought fusion protein
T4 sequence (Q9NZQ7 19-239 limits assumed): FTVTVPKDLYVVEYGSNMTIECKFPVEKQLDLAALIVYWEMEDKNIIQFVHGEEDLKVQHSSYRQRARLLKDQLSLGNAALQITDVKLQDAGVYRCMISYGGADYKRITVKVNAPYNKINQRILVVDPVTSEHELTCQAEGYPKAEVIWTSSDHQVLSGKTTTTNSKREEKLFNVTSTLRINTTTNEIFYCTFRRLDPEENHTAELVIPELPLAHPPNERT
Protocol: (§2) Protein L (Thermo, 21189) was immobilized on flow cells 1 and 2 of a Series S CM5 chip (GE Healthcare, BR-1005-30) by amine coupling (GE Healthcare, BR-1000-50) to a surface density of 2000 RU by following the manufacturer's instructions for the BIAcore T200 instrument. […] The association time was 3 min and the dissociation time was 6 min. Running buffer was HBS-P (GE Healthcare, BR-1003-68). Both flow cells were regenerated by injecting 10 mM sodium hydroxide (NaOH) at a flow rate of 100 μl/min for 20 seconds. The data were analysed by double referencing against the blank flow cell.
(§3) The binding kinetics were fit with a 1:1 Langmuir model to generate binding association (kₐ) and dissociation (kd) rates. Equilibrium binding constants (KD) were calculated by dividing the dissociation rate by the association rate for each sample. Data analysis was performed with BiaEvaluation software version 3.2.

| Kd | koff | kon | Binder |
| --- | --- | --- | --- |
| 1 nM | 0.00032 s⁻¹ | 340000 M⁻¹ s⁻¹ | B1 |
| 1.1 nM | 0.00014 s⁻¹ | 130000 M⁻¹ s⁻¹ | B2 |
| 1.1 nM | 0.00042 s⁻¹ | 370000 M⁻¹ s⁻¹ | B3 |
| 3.5 nM | 0.00056 s⁻¹ | 160000 M⁻¹ s⁻¹ | B5 |

The binders below were run against T3, human PD-L1 expressed on cells (assay: cell-based or functional assay).

| Maximal IL2 release calculated as % ctrl (84G09 + 25F7) | Binder |
| --- | --- |
| 82.9% | B1 |
| 79.8% | B8 |
| 70.2% | B2 |
| 64% | B3 |
| 71.6% | B5 |
| 79.4% | B6 |

The binders below were run against T1, recombinant Fc-tagged human LAG-3 (R&D …) (assay: SPR, BIAcore T200; mAb2 captured on Protein L, human LAG-3 Fc injected).
Protocol: as §2, §3

| Kd | koff | kon | Binder |
| --- | --- | --- | --- |
| 0.049 nM | 0.00028 s⁻¹ | 5.6e+06 M⁻¹ s⁻¹ | B1 |
| 0.039 nM | 0.00023 s⁻¹ | 5.9e+06 M⁻¹ s⁻¹ | B2 |
| 0.043 nM | 0.00018 s⁻¹ | 4.2e+06 M⁻¹ s⁻¹ | B3 |
| 0.038 nM | 0.00017 s⁻¹ | 4.4e+06 M⁻¹ s⁻¹ | B5 |
